In US20110237518A1 (ONCOTHERAPY SCIENCE, published 2011):
One block for each binder: values may come before it.

What was measured:
[1] = target: T1, FLAG-tagged ZNF224 (ZNF224-FLAG), pCAGGSc-ZNF224-FLAG (human, UniProt Q9NZL3 1-707); experiment: co-IP with anti-HA antibody from co-transfected Cos7 cells
T1 construct: Whole open reading frame of ZNF224 in frame with a C-terminal FLAG-tag, expressed in UM-UC-3 or COS7 cells; also called exogenous ZNF224; not shown: C-terminal FLAG-tag from the pCAGGScFLAG vector
Procedure: (§1) To confirm the interaction between DEPDC1 and ZNF224 in bladder cancer cells and identify the ZNF224-binding region in DEPDC1, the immunoprecipitation experiment was carried out as follows. First, it was confirmed interaction between endogenous DEPDC1 and exogenous ZNF224 by immunoprecipitation experiments using anti-DEPDC1 polyclonal antibody for immunoprecipitation and anti-FLAGM2 antibody (Amersham) for immunoblotting. To further determine the ZNF224-binding region in DEPDC1, it was cloned six partial constructs of DEPDC1 (DEPDC1₁₋₁₄₇, DEPDC1₁₄₁₋₃₀₀, DEPDC1₁₇₇₋₅₉₇, DEPDC1₃₀₀₋₆₆₉, DEPDC1₅₈₇₋₇₄₀ and DEPDC1₆₅₄₋₈₁₁) into appropriate sites of COOH-terminal HA-tagged pCAGGS vector. The nucleotide sequence of each clones were determined with an ABI Prism 3700 DNA sequencer (Applied Biosystems, Foster City, Calif.), using each primer. Cell extracts from Cos7 cell line, transfected with each of plasmids expressing one of these six partial segments of DEPDC1, were precleared by incubation at 4 degrees C. for 1 hour with 100 micro 1 of protein G-agarose beads in final volumes of 2 mL of immunoprecipitation buffer (0.5% NP40, 50 mmol/L Tris-HCl, 150 mmol/L NaCl) in the presence of proteinase inhibitor. After centrifugation at 1,000 rpm for 5 minutes at 4 degrees C., the supernatants were incubated at 4 degrees C. with anti-HA rat for 1 hours. […]

[2] = target: T1, FLAG-tagged ZNF224 (ZNF224-FLAG), …; experiment: co-IP with anti-HA rat antibody from co-transfected Cos7 cells
Procedure: as §1

T1 sequence (Q9NZL3 whole entry M118V/H562R): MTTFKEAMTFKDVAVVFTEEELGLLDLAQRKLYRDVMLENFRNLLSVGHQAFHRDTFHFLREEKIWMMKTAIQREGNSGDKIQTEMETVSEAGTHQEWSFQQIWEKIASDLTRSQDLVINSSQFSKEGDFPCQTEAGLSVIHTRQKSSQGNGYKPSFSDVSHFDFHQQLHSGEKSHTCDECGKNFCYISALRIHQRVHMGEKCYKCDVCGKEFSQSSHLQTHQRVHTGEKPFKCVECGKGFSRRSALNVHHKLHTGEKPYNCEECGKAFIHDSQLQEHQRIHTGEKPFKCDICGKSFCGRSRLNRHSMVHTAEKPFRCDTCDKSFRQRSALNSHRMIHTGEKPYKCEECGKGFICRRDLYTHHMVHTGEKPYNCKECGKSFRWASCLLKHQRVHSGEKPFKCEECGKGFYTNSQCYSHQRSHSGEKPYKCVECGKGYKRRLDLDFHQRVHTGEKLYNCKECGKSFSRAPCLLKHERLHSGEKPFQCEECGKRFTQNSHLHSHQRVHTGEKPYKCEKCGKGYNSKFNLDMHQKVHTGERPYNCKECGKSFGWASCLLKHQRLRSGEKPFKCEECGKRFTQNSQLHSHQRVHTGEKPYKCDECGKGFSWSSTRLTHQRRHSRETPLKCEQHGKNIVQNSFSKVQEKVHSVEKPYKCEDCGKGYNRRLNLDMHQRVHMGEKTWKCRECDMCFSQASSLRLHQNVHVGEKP

binding result [1]: no binding
B1: DEPDC1 177-597, COOH-terminal HA-tagged partial construct (other)
chain: DNRELSQEDVEEVWRYVILIYLQTILGVPSLEEVINPKQVIPQYIMYNMANTSKRGVVILQNKSDDLPHWVLSAMKCLANWPRSNDMNNPTYVGFERDVFRTIADYFLDLPEPLLTFEYYELFVNILVVCGYITVSDRSSGIHKIQDDPQSSKFLHLNNLNSFKSTECLLLSLLHREKNKEESDSTERLQISNPGFQERCAKKMQLVNLRNRRVSANDIMGGSCHNLIGLSNMHDLSSNSKPRCCSLEGIVDVPGNSSKEASSVFHQSFPNIEGQNNKLFLESKPKQEFLLNLHSEENIQKPFSAGFKRTSTLTVQDQEELCNGKCKSKQLCRSQSLLLRSSTRRNSYINTPVAEIIMKPNVGQGSTSVQTAMESELGESSATINKRLCKSTIELSENSLLPASSMLTGTQSLLQPHLERV
notes: not shown: C-terminal HA-tag from pCAGGScHA vector

binding result [1]: no binding
B3: DEPDC1 1-147, COOH-terminal HA-tagged partial construct (other)
chain: MESQGVPPGPYRATKLWNEVTTSFRAGMPLRKHRQHFKKYGNCFTAGEAVDWLYDLLRNNSNFGPEVTRQQTIQLLRKFLKNHVIEDIKGRWGSENVDDNNQLFRFPATSPLKTLPRRYPELRKNNIENFSKDKDSIFKLRNLSRRT
notes: as for B1

The remaining lines, values behind:

B2: DEPDC1 587-740, COOH-terminal HA-tagged partial construct (other)
chain: QSLLQPHLERVAIDALQLCCLLLPPPNRRKLQLLMRMISRMSQNVDMPKLHDAMGTRSLMIHTFSRCVLCCAEEVDLDELLAGRLVSFLMDHHQEILQVPSYLQTAVEKHLDYLKKGHIENPGDGLFAPLPTYSYCKQISAQEFDEQKVSTSQA
notes: The forward primer carries an added ACCATG, so an extra start Met may precede residue 587; not shown: C-terminal HA-tag from pCAGGScHA vector
binding result [2]: binds

B4: DEPDC1 300-669, COOH-terminal HA-tagged partial construct (other)
chain: VNILVVCGYITVSDRSSGIHKIQDDPQSSKFLHLNNLNSFKSTECLLLSLLHREKNKEESDSTERLQISNPGFQERCAKKMQLVNLRNRRVSANDIMGGSCHNLIGLSNMHDLSSNSKPRCCSLEGIVDVPGNSSKEASSVFHQSFPNIEGQNNKLFLESKPKQEFLLNLHSEENIQKPFSAGFKRTSTLTVQDQEELCNGKCKSKQLCRSQSLLLRSSTRRNSYINTPVAEIIMKPNVGQGSTSVQTAMESELGESSATINKRLCKSTIELSENSLLPASSMLTGTQSLLQPHLERVAIDALQLCCLLLPPPNRRKLQLLMRMISRMSQNVDMPKLHDAMGTRSLMIHTFSRCVLCCAEEVDLDELLAG
notes: The forward primer carries an added ACCATG, so an extra start Met may precede residue 300; not shown: C-terminal HA-tag from pCAGGScHA vector
binding result [2]: binds
